From patent publication US20230174642A1, “AFFINITY-MATURATED ANTI-ASIC1a ANTIBODIES” (SHANGHAITECH UNIVERSITY, priority 2019, published 2023)

T1: human ASIC1a (hASIC1a-eYFP) (Homo sapiens, UniProt P78348)
T1 construct: expressed in transfected cells; host or cells: CHO-K1 (transient)
T1 sequence (P78348 1-528): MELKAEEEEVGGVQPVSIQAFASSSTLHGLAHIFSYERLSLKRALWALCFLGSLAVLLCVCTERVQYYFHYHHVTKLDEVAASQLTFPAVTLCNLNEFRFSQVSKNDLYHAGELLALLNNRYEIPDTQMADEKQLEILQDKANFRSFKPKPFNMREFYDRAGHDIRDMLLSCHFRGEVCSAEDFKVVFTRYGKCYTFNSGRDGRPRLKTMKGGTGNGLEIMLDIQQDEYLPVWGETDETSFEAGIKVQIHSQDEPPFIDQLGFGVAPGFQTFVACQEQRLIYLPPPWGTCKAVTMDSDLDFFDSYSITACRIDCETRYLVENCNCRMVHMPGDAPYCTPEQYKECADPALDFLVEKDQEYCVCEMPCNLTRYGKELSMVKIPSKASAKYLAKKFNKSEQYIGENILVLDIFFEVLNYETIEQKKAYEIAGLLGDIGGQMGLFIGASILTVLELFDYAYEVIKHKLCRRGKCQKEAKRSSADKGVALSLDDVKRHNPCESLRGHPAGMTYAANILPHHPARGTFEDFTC

T2: mouse ASIC1a (mASIC1a-eYFP) (Mus musculus, UniProt Q6NXK8)
T2 construct: expressed in transfected cells; host or cells: CHO-K1 (transient)
T2 sequence (Q6NXK8 1-526): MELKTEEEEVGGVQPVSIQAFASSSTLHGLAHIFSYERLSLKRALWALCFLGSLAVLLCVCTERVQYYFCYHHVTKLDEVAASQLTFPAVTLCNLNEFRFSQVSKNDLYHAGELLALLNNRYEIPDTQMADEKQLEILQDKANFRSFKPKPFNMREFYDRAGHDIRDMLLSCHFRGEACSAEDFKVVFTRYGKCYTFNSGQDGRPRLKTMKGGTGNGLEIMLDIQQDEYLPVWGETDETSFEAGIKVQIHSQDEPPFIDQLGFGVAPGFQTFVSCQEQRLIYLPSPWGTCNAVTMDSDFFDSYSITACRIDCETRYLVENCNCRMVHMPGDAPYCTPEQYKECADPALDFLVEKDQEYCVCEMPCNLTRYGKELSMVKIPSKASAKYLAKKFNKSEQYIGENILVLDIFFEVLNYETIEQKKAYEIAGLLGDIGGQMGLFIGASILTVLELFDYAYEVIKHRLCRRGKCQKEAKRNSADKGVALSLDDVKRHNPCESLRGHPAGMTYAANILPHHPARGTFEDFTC

T3: rat ASIC1a (rASIC1a-eYFP) (Rattus norvegicus, UniProt P55926)
T3 construct: expressed in transfected cells; host or cells: CHO-K1 (transient)
T3 sequence (P55926 1-526): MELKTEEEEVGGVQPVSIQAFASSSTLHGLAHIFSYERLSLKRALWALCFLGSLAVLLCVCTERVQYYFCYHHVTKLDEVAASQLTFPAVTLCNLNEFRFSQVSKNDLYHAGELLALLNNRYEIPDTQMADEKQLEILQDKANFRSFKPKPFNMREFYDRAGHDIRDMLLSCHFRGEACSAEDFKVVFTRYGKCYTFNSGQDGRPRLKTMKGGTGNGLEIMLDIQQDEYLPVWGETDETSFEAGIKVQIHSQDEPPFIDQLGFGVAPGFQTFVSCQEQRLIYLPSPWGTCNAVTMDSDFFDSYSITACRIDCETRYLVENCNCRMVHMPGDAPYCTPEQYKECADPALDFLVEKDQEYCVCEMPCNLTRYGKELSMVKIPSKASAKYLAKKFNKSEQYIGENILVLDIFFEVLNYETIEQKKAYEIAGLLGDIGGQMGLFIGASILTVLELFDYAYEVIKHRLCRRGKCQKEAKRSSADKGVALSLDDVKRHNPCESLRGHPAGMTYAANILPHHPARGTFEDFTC

T4: ASIC1a (Homo sapiens, UniProt P78348)
T4 construct: expressed in transfected cells
T4 sequence (P78348 1-528): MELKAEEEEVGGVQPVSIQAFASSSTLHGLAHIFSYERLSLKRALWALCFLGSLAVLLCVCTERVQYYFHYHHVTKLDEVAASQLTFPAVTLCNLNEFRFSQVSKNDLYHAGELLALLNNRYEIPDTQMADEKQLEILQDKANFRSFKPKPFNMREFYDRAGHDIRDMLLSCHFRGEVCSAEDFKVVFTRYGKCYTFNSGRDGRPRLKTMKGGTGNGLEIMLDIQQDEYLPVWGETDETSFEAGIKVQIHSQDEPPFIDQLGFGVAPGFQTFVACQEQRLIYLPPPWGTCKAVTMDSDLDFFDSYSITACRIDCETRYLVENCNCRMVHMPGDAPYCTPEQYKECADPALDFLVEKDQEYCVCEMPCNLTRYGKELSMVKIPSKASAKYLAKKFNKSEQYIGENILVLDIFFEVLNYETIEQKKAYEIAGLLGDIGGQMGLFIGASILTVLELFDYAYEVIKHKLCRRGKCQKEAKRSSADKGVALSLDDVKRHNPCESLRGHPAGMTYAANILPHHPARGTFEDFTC


What was measured:
[1] = target: T1, human ASIC1a (hASIC1a-eYFP); test: FACS-based binding assay, transiently transfected CHO-K1 cells (species selectivity); details: double positive population
Protocol: (§1) To investigate the species selectivity of ASC06-IgG1 affinity-matured antibodies, plasmids encoding fusion proteins of eYFP with […] homologs of ASIC1a were constructed. These plasmids included those encoding human ASIC1a (hASIC1a-eYFP), mouse ASIC1a (mASIC1a-eYFP), and rat ASIC1a (rASIC1a-eYFP). CHO-K1 cells were transiently transfected with the ASIC1a-eYFP plasmids, and a fluorescence activated cell sorting (FACS)-based binding assay was carried out to determine binding to the homologs or isoforms of ASIC1a expressed on the cell surface. An isotype control was used as a negative control for binding (NC). ASC06-IgG1 was used as a positive control. Summarily, the CHO-K1 cells expressing the ASIC1a-eYFP (green) homologs were stained with the indicated antibody (red) and subjected to FACS.

[2] = target: T2, mouse ASIC1a (mASIC1a-eYFP); test: as above; details: double positive population
Protocol: as §1

[3] = target: T3, rat ASIC1a (rASIC1a-eYFP); test: as above; details: double positive population
Protocol: as §1

[4] = target: T4, ASIC1a; test: Patch clamp whole-cell recording of acid-induced hASIC1a currents; type: cell-based; details: for blockage of ASIC1a-mediated currents compared to ASC06-IgG1: 100 nM antibody
Protocol: FIGS. 4A-4E show the effect of affinity-matured ASC06-IgG1 derivative antibodies on the hASIC1a currents. Shown are the representative current traces recorded from single CHO-K1 cells stably expressing hASIC1a in the absence or presence of 100 nM ASC06-IgG1 (FIG. 4A) or affinity-matured ASC06-IgG1 versions ASC06-01-IgG1 (FIG. 4B), ASC06-02-IgG1 (FIG. 4C), ASC06-03-IgG1 (FIG. 4D), or ASC06-04-IgG1 (FIG. 4E). Amiloride (30 μM) was used as a positive control. “Wash” represents the recovery of the current after the treatment of 100 nM indicated antibody followed by 15 min infusion of washing solution.
Whether the affinity-matured ASC06-IgG1 derivative antibodies have an effect on the acid-induced, hASIC1a-mediated electrical current in cells was tested. An hASIC1a overexpressing stable cell line was used as a model for these studies. Extracellular pH was decreased from pH 7.4 to pH 6.0 and the amplitudes of the hASIC1a-mediated inward currents were recorded in the whole-cell recording mode in the presence of the affinity-matured ASC06-IgG1 derivative antibodies (FIGS. 4A-4E). The ASIC1a inhibitor amiloride (30 μM) was used as a positive control for the inhibition of ASIC1a currents.

| Molecule | binding to cells expressing hASIC1a-eYFP [1] | binding to cells expressing mASIC1a-eYFP [2] | binding to cells expressing rASIC1a-eYFP [3] | blockage of ASIC1a-mediated currents compared to ASC06-IgG1 [4] | Percent inhibition of the acid induced-hASIC1a currents ([4]; 300 nM antibody, pH 7.4 to pH 6.0, mean ± standard deviation) [%] |
| --- | --- | --- | --- | --- | --- |
| ASC06-01-IgG1: affinity-matured ASC06 derivative, VH-CDR3 DSYFGYSKGD (SEQ ID NO: 11) (antibody, V domains shown) VH: QVQLQQSGGGLVQPGGSLRLSCAASGFTFSSYAMSWVRQAPGKGLEWVSAISGSGGSTYYADSVKGRFTISRDNSKNTLYLQMNSLRAEDTAVYYCAKDSYFGYSKGDWGQGTLVTVSS VL: QSALTQPASVSGSPGQSITISCTGTSSDVGAYNYVSWYQQQPGKAPKLMIYGVSNRPSGVSNRFSGSKSGNAASLTISGLQAEDEADYYCSSYTSSSTYVFGTGTKLTVLG | bound | bound | bound | – | – |
| ASC06-02-IgG1: affinity-matured ASC06 derivative, VH-CDR3 DSFFGRAKGS (SEQ ID NO: 13) (antibody, V domains shown) VH: QVQLQQSGGGLVQPGGSLRLSCAASGFTFSSYAMSWVRQAPGKGLEWVSAISGSGGSTYYADSVKGRFTISRDNSKNTLYLQMNSLRAEDTAVYYCAKDSFFGRAKGSWGQGTLVTVSS VL: QSALTQPASVSGSPGQSITISCTGTSSDVGAYNYVSWYQQQPGKAPKLMIYGVSNRPSGVSNRFSGSKSGNAASLTISGLQAEDEADYYCSSYTSSSTYVFGTGTKLTVLG | bound | bound | bound | stronger blockage | – |
| ASC06-03-IgG1: affinity-matured ASC06 derivative, VH-CDR3 DSFYGRAKGS (SEQ ID NO: 15) (antibody, V domains shown) VH: QVQLQQSGGGLVQPGGSLRLSCAASGFTFSSYAMSWVRQAPGKGLEWVSAISGSGGSTYYADSVKGRFTISRDNSKNTLYLQMNSLRAEDTAVYYCAKDSFYGRAKGSWGQGTLVTVSS VL: QSALTQPASVSGSPGQSITISCTGTSSDVGAYNYVSWYQQQPGKAPKLMIYGVSNRPSGVSNRFSGSKSGNAASLTISGLQAEDEADYYCSSYTSSSTYVFGTGTKLTVLG | bound | bound | bound | stronger blockage | – |
| ASC06-04-IgG1: affinity-matured ASC06 derivative, VH-CDR3 DSFYGRAKGV (SEQ ID NO: 17) (antibody, V domains shown) VH: QVQLQQSGGGLVQPGGSLRLSCAASGFTFSSYAMSWVRQAPGKGLEWVSAISGSGGSTYYADSVKGRFTISRDNSKNTLYLQMNSLRAEDTAVYYCAKDSFYGRAKGVWGQGTLVTVSS VL: QSALTQPASVSGSPGQSITISCTGTSSDVGAYNYVSWYQQQPGKAPKLMIYGVSNRPSGVSNRFSGSKSGNAASLTISGLQAEDEADYYCSSYTSSSTYVFGTGTKLTVLG | bound | bound | bound | stronger blockage | 96.8 ± 3.4 |
| ASC06-IgG1: parental (WT) ASIC1a-specific antagonist antibody; VL SEQ ID NO: 2, VH SEQ ID NO: 7, VH-CDR3 DSFYGYSKGD (antibody, V domains shown, IgG1 constant regions; Amino acid sequence VH of ASC06; Amino acid sequence VL of ASC06) VH: QVQLQQSGGGLVQPGGSLRLSCAASGFTFSSYAMSWVRQAPGKGLEWVSAISGSGGSTYYADSVKGRFTISRDNSKNTLYLQMNSLRAEDTAVYYCAKDSFYGYSKGDWGQGTLVTVSS VL: QSALTQPASVSGSPGQSITISCTGTSSDVGAYNYVSWYQQQPGKAPKLMIYGVSNRPSGVSNRFSGSKSGNAASLTISGLQAEDEADYYCSSYTSSSTYVFGTGTKLTVLG | bound | bound | bound | – | – |
